Measured values reported in patent publication US12331106B2, “Anti-angiopoietin-2 antibodies that induce Tie2 activation” (Institute for Basic Science, priority 2018, dated 2025).
Read-outs that look alike come from different tables or passages of the source.

Target: T1, hAng2-RBD (Homo sapiens, UniProt O15123)
T1 construct: made in house; host or cells: HEK293F
T1 sequence (O15123 276-496): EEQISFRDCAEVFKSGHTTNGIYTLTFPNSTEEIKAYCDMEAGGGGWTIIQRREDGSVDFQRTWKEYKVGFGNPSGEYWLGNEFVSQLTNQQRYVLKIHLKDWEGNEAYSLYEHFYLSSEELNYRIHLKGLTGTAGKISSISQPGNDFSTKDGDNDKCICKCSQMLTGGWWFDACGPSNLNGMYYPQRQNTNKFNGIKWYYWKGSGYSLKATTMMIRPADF
Format: binding
Details: for Relative Uptake (Da) Δ: 2C8
Method: The antigenic determinants (epitopes) of hAng2 recognized by mouse monoclonal antibodies, 2C8 and 4B9, were analyzed by HDX-MS (Hydrogen/deuterium exchange-mass spectrometry) technique. HDX-MS analysis methods are described in the following articles; Houde D, Engen J R (2013) Methods Mol. Biol. 988: 269-89 and Houde et al. (2011) J. Pharm. Sci. 100 (6), 2071.
Recombinant hAng2-RBD protein was used to analyze the epitopes of antibodies 2C8 and 4B9. […] The prepared hAng2-RBD/antibody complexes were diluted 15 times with deuterium labeling buffer, labeled at various time, and then quenched with the same volume of quenching buffer. The labeling reaction time was 0 min (undeuterium), 0.33 min, 10 min, 60 min and 240 min. However, in undeuterium condition, the deuterium labeling buffer was replaced with equilibrium buffer and the reaction was immediately stopped with quenching buffer. For mass spectrometry, the deuterium labeled hAng2-RBD/antibody samples were loaded on a pepsin column and peptide digestion was proceeded.
The deuterium uptake difference between hAng2-RBD alone and the hAng2-RBD-antibody complex conditions was comparatively analyzed, and a region showing a distinct decrease in the deuterium uptake is either a peptide to which the antibody binds directly, or a structurally changed region. When the deuterium uptake difference between hAng2-RBD alone and the hAng2-RBD-antibody complex was 0.5-1 Da or more, it was considered significant.
In the case of antibody 4B9, it cannot be ruled out that an undetermined region (residues 25 to 40 of SEQ ID NO: 2) can be included in the scope of the epitope. The epitope analysis results for each antibody are shown in different colors on the 3D structure of hAng2-RBD, which was generated using PyMol software (FIG. 2).

B1: 2C8: mouse monoclonal anti-Ang2 antibody; VH SEQ ID NO: 19, VL SEQ ID NO: 21; hybridoma KCLRF-BP-00417 (antibody, V domains shown)
VH: QVQLQQSGPQLVRPGASVKISCKASGYSFTSYWMHWVKQRPGQGLEWIGMIDPSDSETRLNQKFKDKASLTVDKSSSTAYMQLSSPTSGDSAVYYCARRFYYGSDWYFDVWGAGSTVTVSS
VL: DIVMTQSHKFMSTSVGDRVSITCKASQDVGTAVAWYQQKPGQSPKLLIYWASTRHTGVPDRFTGSGSGTDFTLTISNVQSEDLADYFCQQYSSYPLTFGSGTKLEIK
modifications: Heavy Chain Variable Region; Light Chain Variable Region
notes: mouse monoclonal anti-Ang2 antibody; hybridoma KCLRF-BP-00417
Relative Uptake (Da) Δ (residues 52-60 (SEQ ID NO: 2), exposure time 0.00 min): 0.15 Da | Relative Uptake (Da) Δ (residues 52-60 (SEQ ID NO: 2), exposure time 0.33 min): 0.21 Da | Relative Uptake (Da) Δ (residues 52-60 (SEQ ID NO: 2), exposure time 10.00 min): 0.41 Da | Relative Uptake (Da) Δ (residues 52-60 (SEQ ID NO: 2), exposure time 60.00 min): 0.14 Da | Relative Uptake (Da) Δ (residues 52-60 (SEQ ID NO: 2), exposure time 240.00 min): 0.08 Da | Relative Uptake (Da) Δ (residues 61-77 (SEQ ID NO: 2), exposure time 0.00 min): 0.08 Da | Relative Uptake (Da) Δ (residues 61-77 (SEQ ID NO: 2), exposure time 0.33 min): 1.18 Da | Relative Uptake (Da) Δ (residues 61-77 (SEQ ID NO: 2), exposure time 10.00 min): 1.78 Da | Relative Uptake (Da) Δ (residues 61-77 (SEQ ID NO: 2), exposure time 60.00 min): 1.36 Da | Relative Uptake (Da) Δ (residues 61-77 (SEQ ID NO: 2), exposure time 240.00 min): 1.31 Da | Relative Uptake (Da) Δ (residues 61-78 (SEQ ID NO: 2), exposure time 0.00 min): 0.06 Da | Relative Uptake (Da) Δ (residues 61-78 (SEQ ID NO: 2), exposure time 0.33 min): 1.15 Da | Relative Uptake (Da) Δ (residues 61-78 (SEQ ID NO: 2), exposure time 10.00 min): 1.80 Da | Relative Uptake (Da) Δ (residues 61-78 (SEQ ID NO: 2), exposure time 60.00 min): 1.33 Da | Relative Uptake (Da) Δ (residues 61-78 (SEQ ID NO: 2), exposure time 240.00 min): 1.34 Da | Relative Uptake (Da) Δ (residues 67-77 (SEQ ID NO: 2), exposure time 0.00 min): −0.12 Da | Relative Uptake (Da) Δ (residues 67-77 (SEQ ID NO: 2), exposure time 0.33 min): 0.89 Da | Relative Uptake (Da) Δ (residues 67-77 (SEQ ID NO: 2), exposure time 10.00 min): 1.58 Da | Relative Uptake (Da) Δ (residues 67-77 (SEQ ID NO: 2), exposure time 60.00 min): 1.21 Da | Relative Uptake (Da) Δ (residues 67-77 (SEQ ID NO: 2), exposure time 240.00 min): 1.07 Da | Relative Uptake (Da) Δ (residues 67-78 (SEQ ID NO: 2), exposure time 0.00 min): 0.30 Da | Relative Uptake (Da) Δ (residues 67-78 (SEQ ID NO: 2), exposure time 0.33 min): 0.95 Da | Relative Uptake (Da) Δ (residues 67-78 (SEQ ID NO: 2), exposure time 10.00 min): 1.66 Da | Relative Uptake (Da) Δ (residues 67-78 (SEQ ID NO: 2), exposure time 60.00 min): 1.33 Da | Relative Uptake (Da) Δ (residues 67-78 (SEQ ID NO: 2), exposure time 240.00 min): 1.04 Da | Relative Uptake (Da) Δ (residues 78-84 (SEQ ID NO: 2), exposure time 0.00 min): 0.00 Da | Relative Uptake (Da) Δ (residues 78-84 (SEQ ID NO: 2), exposure time 0.33 min): −0.01 Da | Relative Uptake (Da) Δ (residues 78-84 (SEQ ID NO: 2), exposure time 10.00 min): 0.01 Da | Relative Uptake (Da) Δ (residues 78-84 (SEQ ID NO: 2), exposure time 60.00 min): 0.11 Da | Relative Uptake (Da) Δ (residues 78-84 (SEQ ID NO: 2), exposure time 240.00 min): 0.36 Da | epitope of hAng2-RBD to which the antibody binds (deuterium uptake difference 0.5-1 Da or more considered significant): residues 61 to 78 of SEQ ID NO: 2
